# Experimental data from publication PMC3693578 (Molecular cell, 2012).
# T1: TSC1 (hamartin), endogenous human (human (endogenous in HeLa), UniProt Q92574 1-1164)
# T1 sequence (looked up): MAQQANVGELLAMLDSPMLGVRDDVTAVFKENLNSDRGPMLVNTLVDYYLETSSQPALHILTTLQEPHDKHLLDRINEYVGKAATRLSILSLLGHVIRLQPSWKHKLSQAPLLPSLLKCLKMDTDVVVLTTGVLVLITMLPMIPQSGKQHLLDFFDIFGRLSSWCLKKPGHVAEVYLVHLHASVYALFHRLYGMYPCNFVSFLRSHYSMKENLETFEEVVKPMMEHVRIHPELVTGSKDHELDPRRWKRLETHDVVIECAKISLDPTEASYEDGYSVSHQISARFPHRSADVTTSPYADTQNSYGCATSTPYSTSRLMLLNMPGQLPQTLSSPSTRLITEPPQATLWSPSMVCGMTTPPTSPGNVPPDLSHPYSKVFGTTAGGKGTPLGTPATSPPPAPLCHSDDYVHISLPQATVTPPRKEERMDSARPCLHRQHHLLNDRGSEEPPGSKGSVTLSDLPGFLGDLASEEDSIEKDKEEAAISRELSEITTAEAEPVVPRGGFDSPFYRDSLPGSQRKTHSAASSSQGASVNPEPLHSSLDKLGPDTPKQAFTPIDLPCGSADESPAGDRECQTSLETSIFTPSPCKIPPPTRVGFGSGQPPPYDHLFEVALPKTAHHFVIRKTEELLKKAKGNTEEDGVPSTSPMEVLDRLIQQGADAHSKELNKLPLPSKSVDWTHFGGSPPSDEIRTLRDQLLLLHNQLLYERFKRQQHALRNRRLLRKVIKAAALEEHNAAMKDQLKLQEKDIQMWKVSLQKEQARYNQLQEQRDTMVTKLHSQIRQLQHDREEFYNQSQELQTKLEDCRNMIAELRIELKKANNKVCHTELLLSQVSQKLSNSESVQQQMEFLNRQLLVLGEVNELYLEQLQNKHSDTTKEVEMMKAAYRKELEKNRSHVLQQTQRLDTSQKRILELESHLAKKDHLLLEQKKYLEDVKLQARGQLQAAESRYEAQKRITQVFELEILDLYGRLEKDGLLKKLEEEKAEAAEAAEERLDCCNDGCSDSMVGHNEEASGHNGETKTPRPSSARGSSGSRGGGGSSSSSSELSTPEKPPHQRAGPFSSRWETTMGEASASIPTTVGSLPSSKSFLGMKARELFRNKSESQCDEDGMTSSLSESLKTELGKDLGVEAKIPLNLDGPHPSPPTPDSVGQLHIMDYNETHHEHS
# B1: TSC2 (tuberin), endogenous human (natural protein)
# chain: not shown
# Biological target: T1, TSC1 (hamartin), endogenous human
# Experiment: affinity purification with mass spectrometry
binder,measurement,value
B1,stoichiometry N,~1
